Experimental data reported in the nanobody polyreactivity screen of Harvey et al. (2022).

Assay: yeast display, Sf9 membrane polyspecificity reagent, FACS + sequencing; frameworks hold sequencing errors
Method in brief: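 Nanobodies came from a synthetic yeast display library in Saccharomyces cerevisiae BJ5465, induced with galactose for 36–48 hours and stained for 1 hour at 4 °C with 10% biotinylated, detergent-solubilized Sf9 membrane reagent. Cells were enriched on streptavidin microbeads and then FACS-sorted, with low and high (top ~1%) gates set on anti-HA fluorescence for expression and streptavidin fluorescence for reagent binding. Each polyreactivity label reflects the gate a clone came from. Genes were amplified by colony PCR, sequenced by MiSeq 2 × 250 and filtered by CDR length.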

**Q.** For “QVQHVESGGGLVQAGGSLRLSCAASGYIFVRNAMGWYRQAPGKERELVAAISGSGGSTYYADSVKGRFTISRDNAKNTVYLQMNSLKPEDTAVYYCAADYATVTWRGIAYDYWGQGTQVTVSS”, which “polyreactivity (PSR sort gate)” value is on record?
**A.** low polyreactivity

**Q.** Which “polyreactivity (PSR sort gate)” value does the source give for “QVQHVESGGGLVQAGGSLRLSCAASVSIFEYYAMGWDRRAHGKERELVARITDSGGSTYADSVKGRFTISRDNAKNTVYLQMSSLKPEDTAVYYCAADDNYFDFDYWGQGTQVTVSS” here?
**A.** low polyreactivity

**Q.** With “QVQHVESGGGLVQAGGSLRLSCAASVSIFYDYAMGWYRQAPGKERELVAAINKSGGSTYYADSVKGRFTISRDNAKNTVYLQMNSLKPEDTAVYYCIARKRLGPVRYGYWGQGTQVTVST” as the sequence, how does the “polyreactivity (PSR sort gate)” value read?
**A.** high polyreactivity

**Q.** With “QVQHVESGGGLVQAGGSLRLSCAASVSIFYGYAMGWSRQAPGKERELVATIRFITGSTYYADSVKGRFTISRDNAKNTVYLQMNSRKPEDTAVYYCAAVYVGYYDNYDYWGQGTQVTVSS” as the sequence, how does the “polyreactivity (PSR sort gate)” value read?
**A.** low polyreactivity

**Q.** Which “polyreactivity (PSR sort gate)” value does the source give for “QVQHVESGGGLVQAGGSLRLSCAAYGRTFGYYAMGWNRQAPGKDRELVAAITSGGRTNYADSVKGRFTISRDNAKNTVYLQMISQKPEDTAVYYCAATWNWPLSERKFNYWGQGTQVTVSS” here?
**A.** low polyreactivity

**Q.** With “QVQHVESGGGLVQAGGSLRLSCASSGRIFYFYAMGWYRQAPGKLRELVAAISTSGGSTYYADSVKGRFKISRDNATNTVYLQMNSLKPEDPAVYYCAGRFRYYGSEYDYWGQGTQVTVSS” as the sequence, how does the “polyreactivity (PSR sort gate)” value read?
**A.** low polyreactivity

**Q.** With “QVQHVESGGGLVQAGGSLRLSCASSGSIFVGNAMGWYRQAPGKERELVAAISRRGGRPYYADSVKGRFTISRDKAKNTVYLQMNSLKPEDTAVYYCAAEYTYQNRIRFDYWGQGTQVTVSS” as the sequence, how does the “polyreactivity (PSR sort gate)” value read?
**A.** high polyreactivity

**Q.** Which “polyreactivity (PSR sort gate)” value does the source give for “QVQHVESGGGLVQAGGSLRLSCDAYGSTFYYYAMGWYRQAPGKERELVASISRGGSTNYAYSVKGRFTISRDNAKNTVYLQMNSLKAEDTAVYYCNADRYLRPKSWWTVYYERDYWGQGTQVTVSS” here?
**A.** low polyreactivity

**Q.** For “QVQHVESGGGLVQAGGSLRLSCSASGFTLTAYAMGWSRQPPGKEREFVAAISTSGTRTYYADSVKGRFTISRDNAKNTVYLQMNSLKQEDTAVYYCAARYSGYQYWKFNYWGQGTQVTVSS”, which “polyreactivity (PSR sort gate)” value is on record?
**A.** high polyreactivity

**Q.** With “QVQHVESGGGLVQAGGSLRLSCSASGRTFSSYVMGWYRQAPGKERELVATITSGGITYYADSVKGRFTISRDNAKNTVYLQMNSLKPEDTAVYYCARAPPGDRFVRYDYWGQGTQVTVSS” as the sequence, how does the “polyreactivity (PSR sort gate)” value read?
**A.** high polyreactivity

**Q.** Which “polyreactivity (PSR sort gate)” value does the source give for “QVQHVESGGGLVQAGGSLRLSFAASGSTFAWYPMGWYRQAPGKERELVAAITRDGSTYYADSVKGRFTISRDNAKNTVYLQMNSLKPEDTAVYYCAADLSYWRGGHSRYYWGQGTQVTVSS” here?
**A.** low polyreactivity

**Q.** Which “polyreactivity (PSR sort gate)” value does the source give for “QVQHVESGGGLVQAGGSLRLSSAASGGTFNVYAMGWYRQAPGKESELVAAIRWSGGSTYYADSVKGRFTISRDNAKNTVYLQMNSLKPEDTAVYFCAARFYGRSQTYGSWGLGTQVTVSS” here?
**A.** high polyreactivity

**Q.** For “QVQHVESGGGLVQAGGSLRLSSAASGHTFHRYAMGWYRQARWKESELVAAISDSGSSSYYADSVKRRFTISRDYAKYTVYLQMNSLKPEDTALYYCAAVSGFFDQYDYWGQGTQVTVSS”, which “polyreactivity (PSR sort gate)” value is on record?
**A.** low polyreactivity

**Q.** For “QVQHVESGGGLVQAGGSLRLTCAASGFIFVIYAMGWYRTAPGKERELVAAITESGDRTYYADSVKGGFTISRDNAKNTVYLQMNSLKPEDTAVYYCNALLSYGYHAAYGYWGQGTQVTVSS”, which “polyreactivity (PSR sort gate)” value is on record?
**A.** high polyreactivity

**Q.** With “QVQHVESGGGLVQAGGSLRLTCAASGRIIAGYAMGWYRQATGKEREMVAAISSRGGSTYYADSVKGRFSISRDNAKNTVDLQMNSLKPVDTAVYYCAKRSWYSYVYGSGDYWGQGTQVTVSS” as the sequence, how does the “polyreactivity (PSR sort gate)” value read?
**A.** high polyreactivity

**Q.** Which “polyreactivity (PSR sort gate)” value does the source give for “QVQHVESGGGLVQAGGSRRLSCAASGSIFFYAMGWYRQAPAKERVLVAAITSAGSTNFADSVKGRFTISRDNAKNTVYLQMYSLKPEDTAVYYCAAGYVGYSWSYPYGWVEYDYWGQGTQVTVSS” here?
**A.** high polyreactivity

**Q.** With “QVQHVESGGGLVQAGRSLRLSCAASGILRRYAMGWYIQERGKERELVAAITRTGGRTYYADSVKGRFTISRDNAKNTVYLQMNSLKPEDTAVYYCATDRYVVSGMDYWGQGTQVTVSS” as the sequence, how does the “polyreactivity (PSR sort gate)” value read?
**A.** high polyreactivity

**Q.** Which “polyreactivity (PSR sort gate)” value does the source give for “QVQHVESGGGLVQAGVSLRLSCAASGLTFTRYAMGWDRQAPGKERELVAAISWSGGSTYYADSVKGRFTISRDNAKNTVYLQMNSLKPEDTAVYYCAAEPYKQYTGYYYSGFEFWGQGTQVTVSS” here?
**A.** high polyreactivity

**Q.** Which “polyreactivity (PSR sort gate)” value does the source give for “QVQHVESGGGLVQAGVSLRLSCAASGSIFVYYAMGWYRQAPGKERELVASISESDGSTSYADSVKGRFTISRDNAMNTVYLQMNSLKPEDTAVSYCAADPYFYWYSPSFDYWGQGTQVTVSS” here?
**A.** low polyreactivity

**Q.** With “QVQHVESGGGLVQAGVSLRLSCAATGRIFGRYVMGWYRQAPGKETELVARIRRNVGSTYYADSVKGRFTISRDNAKYPVYLQMNSLKPEDTAVYYCAAESYDTWRRYESWGQGTQVTVSS” as the sequence, how does the “polyreactivity (PSR sort gate)” value read?
**A.** high polyreactivity

**Q.** Which “polyreactivity (PSR sort gate)” value does the source give for “QVQHVESGGNLFKAGGSLRLSCAASGITFVYNAMGWYRPAPGKERELVDGITWSGSSTYYADSVKGRFTISRDNAKNTVYFHMNSLKPDDTAVYYCDAYLYDRTTRYTYYYWGQGTQVTVSS” here?
**A.** high polyreactivity

**Q.** Which “polyreactivity (PSR sort gate)” value does the source give for “QVQHVESGRGLVQAGGSLRLSCDASGFTFRSYPIGWYRHAPGKERELVAGITWRGGRTYYADSVKGRFTISRDNAKNTVYLQMNSLKPEDTAVYNCAKLYRYIYGGMDYWGQGTQVTVSS” here?
**A.** high polyreactivity
